We go through 13 substances from PMC11808092.

Assay [1] deals with human dUTPase (human).
The target of assay [2] is human dUTPase (human). The experiment in a line: steady state enzyme inhibition assay; apparent; 50 nM hDUT preincubated 5 min with varying Stl variant, 30 µM dUTP, 25 °C, 1 mM HEPES, 150 mM KCl, 5 mM MgCl2, 40 µM phenol red, pH 7.5; quadratic binding equation.
Assay [3] deals with human dUTPase (human). Nature of the assay: crystal structure; Stl^NT and hDUT mixed in 1:1 monomer molar ratio, ca. 20 mg/ml; crystals at 20 °C from 1.5 M ammonium sulfate, 0.1 M sodium acetate pH 5; 3.2 Å.
Assay [4] concerns the target biotinylated Stl^NT (residues 1-159) with C-terminal Avi-tag (Staphylococcus aureus). Nature of the assay: BLI; biotinylated Stl construct on streptavidin SAX biosensors, hDUT in solution; Octet K2, 30 °C, 50 mM HEPES, 300 mM NaCl, 5 mM MgCl2, pH 7.5; at least five dilutions; 1:1 binding model; substrate-free.

In turn, “Stl^NT (amino terminal domain of Stl, residues 1-159) (domain or fragment)” had a Residual activity of 50 nM hDUT at 300 nM Stl concentration in the assay with human dUTPase (human) [1] of 50%. For the same substance, the Ki in the assay with human dUTPase (human) [2] is 31 nM.
Substance Stl-Y106K (natural protein) came in with a Residual activity of 50 nM hDUT at 300 nM Stl concentration with human dUTPase (human) [1] of 83%.
“Stl protein, wild type, full-length (natural protein)” gave a Residual activity of 50 nM hDUT at 300 nM Stl concentration with human dUTPase (human) [1] of 30%.
Still for that read-out and setting: for Stl-S114E (natural protein) the value was 100%; for Stl-E189A (natural protein), 77%.
On the same count and under the same terms, for Stl-Y116R (natural protein) the value was 69%.
For the substance human dUTPase (enzyme), in the assay with human dUTPase (human) [3], the stoichiometry N amounted to 3. Moreover, in assay [4], the dissociation constant (Kd) amounted to 0.177 nM, the koff is 0.000106 s⁻¹ and the kon is 600000 M⁻¹ s⁻¹.
The substance Stl-V55S (natural protein) returned a Residual activity of 50 nM hDUT at 300 nM Stl concentration with human dUTPase (human) [1] of 75%.
Regarding Stl-I181A, I184A (natural protein), the Residual activity of 50 nM hDUT at 300 nM Stl concentration with human dUTPase (human) [1] is 70%. Moreover, the Ki in the assay with human dUTPase (human) [2] worked out at 2.3 nM.
The substance Stl-S114D (natural protein) came in with a Residual activity of 50 nM hDUT at 300 nM Stl concentration in the assay with human dUTPase (human) [1] of 100%.
Still for that read-out and setting: in the case of Stl-Y106R (natural protein) it was 89%.
Still for that read-out and setting: for Stl-L192A, F196A (natural protein) the value was 100%.
In the case of Stl-derived peptide 95-…-117, the Residual activity of 50 nM hDUT at 300 nM Stl concentration with human dUTPase (human) [1] was determined as 70%. Besides, the Ki with human dUTPase (human) [2] turned out to be 13 nM.
